Reference: article PMC11075064

Molecular target: KCC2 (SLC12A5), neuron-specific K+/Cl- transporter (mouse (endogenous in brain)) (UniProt Q91V14)
Assay: co-IP

UniProt Q91V14, sequence (Q91V14 whole entry): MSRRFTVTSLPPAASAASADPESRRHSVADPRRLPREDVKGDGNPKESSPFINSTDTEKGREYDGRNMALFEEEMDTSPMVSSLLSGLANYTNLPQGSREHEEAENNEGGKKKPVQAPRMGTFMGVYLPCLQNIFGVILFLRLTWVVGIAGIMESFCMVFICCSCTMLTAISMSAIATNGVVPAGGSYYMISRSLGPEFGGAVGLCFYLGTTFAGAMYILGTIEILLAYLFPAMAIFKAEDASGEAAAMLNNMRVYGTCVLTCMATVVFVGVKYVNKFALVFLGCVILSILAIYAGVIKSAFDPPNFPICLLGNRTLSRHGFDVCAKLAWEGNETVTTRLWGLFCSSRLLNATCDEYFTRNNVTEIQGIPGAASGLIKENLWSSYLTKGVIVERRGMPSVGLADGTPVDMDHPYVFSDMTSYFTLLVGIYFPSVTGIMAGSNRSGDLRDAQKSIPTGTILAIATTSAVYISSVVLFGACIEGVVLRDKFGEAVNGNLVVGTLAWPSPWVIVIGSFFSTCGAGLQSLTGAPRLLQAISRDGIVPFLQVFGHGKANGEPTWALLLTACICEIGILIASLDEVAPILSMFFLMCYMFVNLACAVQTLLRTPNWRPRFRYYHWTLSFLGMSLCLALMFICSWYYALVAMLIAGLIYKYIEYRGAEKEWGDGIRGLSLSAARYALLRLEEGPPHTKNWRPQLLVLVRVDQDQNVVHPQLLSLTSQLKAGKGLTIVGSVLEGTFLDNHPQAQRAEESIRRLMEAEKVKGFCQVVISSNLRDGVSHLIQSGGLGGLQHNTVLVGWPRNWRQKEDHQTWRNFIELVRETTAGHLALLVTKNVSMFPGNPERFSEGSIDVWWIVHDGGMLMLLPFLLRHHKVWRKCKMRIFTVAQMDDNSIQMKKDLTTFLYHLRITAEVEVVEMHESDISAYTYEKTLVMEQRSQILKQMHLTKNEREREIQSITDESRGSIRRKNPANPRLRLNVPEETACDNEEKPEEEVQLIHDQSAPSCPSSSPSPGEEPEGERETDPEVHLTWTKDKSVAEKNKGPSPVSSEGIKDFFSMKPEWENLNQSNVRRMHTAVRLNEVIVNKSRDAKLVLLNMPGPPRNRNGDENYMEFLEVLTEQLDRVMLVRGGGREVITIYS

ratio of PP1/KCC2 immunoreactivity in LMTK3 KO mice, percent of WT: 28.6 % of WT
Substance: catalytic subunit of protein phosphatase-1 (PP1) (from UniProt P62137 1-330) (enzyme)
